Results reported in patent US20160200831A1 (Sanofi, published 2016).

Columns and labels:
human PAI-1 [1] = target: T1, human PAI-1 (human, UniProt P05121 24-402); test: Biacore, hybridoma supernatant
T1 construct: also used for endogenous PAI-1 of human plasma, liver lysate and lung fibroblasts; also called hPAI-1; hPAI

human PAI-1 [2] = target: T1, human PAI-1; test: cell-based or functional assay
[3] = target: T2, glycosylated human PAI-1 (active form) (human, UniProt P05121 24-402, glycosylated); test: cell-based or functional assay
T2 sequence (P05121 24-402 limits assumed): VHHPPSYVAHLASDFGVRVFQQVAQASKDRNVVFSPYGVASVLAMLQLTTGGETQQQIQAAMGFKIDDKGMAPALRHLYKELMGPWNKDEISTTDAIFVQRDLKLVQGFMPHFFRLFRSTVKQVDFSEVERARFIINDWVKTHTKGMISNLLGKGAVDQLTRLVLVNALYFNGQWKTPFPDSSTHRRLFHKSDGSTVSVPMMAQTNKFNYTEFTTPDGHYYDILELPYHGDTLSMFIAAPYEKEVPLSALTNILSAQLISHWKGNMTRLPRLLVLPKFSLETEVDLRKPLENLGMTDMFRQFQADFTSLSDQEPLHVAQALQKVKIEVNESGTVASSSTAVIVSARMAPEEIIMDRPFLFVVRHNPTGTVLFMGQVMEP

[4] = target: T2, glycosylated human PAI-1 (active form); test: cell-based or functional assay; remark: listed apart in the source
human PAI-1 [5] = target: T1, human PAI-1; test: cell-based or functional assay; remark: listed apart in the source
[6] = target: T2, glycosylated human PAI-1 (active form); test: cell-based or functional assay; remark: listed apart in the source
[7] = target: T2, glycosylated human PAI-1 (active form); test: SPR Biacore 2000, mAb captured by anti-Fc, single-cycle kinetics, 1:1 model
Description: First, the surface of a Sensor Chip CM5 (GE Healthcare, Uppsala, Sweden) was prepared using routine amine coupling for the capture of the mouse and human anti-Fc (Anti-human IgG (Fc) antibody & Anti-mouse IgG antibody kits, GE Healthcare). All monoclonal antibodies (mAbs) were diluted to 5 nM using HBS-EP running buffer. Each purified mAb was captured for three minutes on a different flow cell surface. Human PAI-1 was injected at various concentrations (2.5, 5, 10, 20 and 40 nM) with short dissociation times in between and a long dissociation time at the end (contact time: 120 seconds, short dissociation: 90 seconds; long dissociation: 1800 seconds, flow rate: 50 μl/min). The chip was regenerated by glycine-HCl, pH 1.7 buffer after each round of antibody-PAI-1 binding. Kinetics data analysis was performed using Biacore BIAevaluation software. The sensorgrams were double-referenced by subtracting the reference flow cell values and the blank buffer values. The sensorgrams were fitted by using the simulated kinetics 1:1 (Langmuir) model with local Rmax. (see FIG. 19).

[8] = target: T3, cyno PAI-1 captured on immobilized human vitronectin (cynomolgus monkey; human, UniProt P04004 20-478, limits assumed); test: Biacore, cPAI-1 on vitronectin chip, two state reaction model
T3 construct: non-covalent complex formed on the chip; also called cPAI-1/Vn
T3 sequence (chain, as listed by the source limits assumed, chain 1 of 2): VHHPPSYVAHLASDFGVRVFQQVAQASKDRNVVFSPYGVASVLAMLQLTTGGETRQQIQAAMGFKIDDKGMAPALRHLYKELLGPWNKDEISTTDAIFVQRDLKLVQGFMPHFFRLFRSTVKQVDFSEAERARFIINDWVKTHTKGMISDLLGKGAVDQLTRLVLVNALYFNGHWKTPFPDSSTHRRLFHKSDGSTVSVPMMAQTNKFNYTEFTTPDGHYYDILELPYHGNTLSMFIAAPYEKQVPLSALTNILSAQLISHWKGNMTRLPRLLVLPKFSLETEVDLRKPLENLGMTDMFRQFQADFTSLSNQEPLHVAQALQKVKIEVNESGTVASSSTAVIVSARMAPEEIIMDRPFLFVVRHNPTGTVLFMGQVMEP
T3 sequence (P04004 20-478 limits assumed, chain 2 of 2): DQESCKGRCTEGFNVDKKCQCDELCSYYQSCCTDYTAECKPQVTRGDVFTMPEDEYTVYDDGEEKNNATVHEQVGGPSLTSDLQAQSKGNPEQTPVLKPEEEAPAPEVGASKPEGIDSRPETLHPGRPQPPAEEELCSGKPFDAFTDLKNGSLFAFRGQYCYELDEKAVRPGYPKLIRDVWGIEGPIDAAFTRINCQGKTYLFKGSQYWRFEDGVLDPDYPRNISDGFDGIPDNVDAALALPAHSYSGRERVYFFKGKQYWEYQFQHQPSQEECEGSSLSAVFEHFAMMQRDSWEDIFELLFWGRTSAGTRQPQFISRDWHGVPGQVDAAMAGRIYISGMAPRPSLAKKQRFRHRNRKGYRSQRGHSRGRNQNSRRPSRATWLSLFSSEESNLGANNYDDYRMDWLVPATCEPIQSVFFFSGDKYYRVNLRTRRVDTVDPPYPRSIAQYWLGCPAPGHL

[9] = target: T4, human PAI-1 captured on immobilized human vitronectin (human, UniProt P04004 20-478); test: Biacore, hPAI-1 on vitronectin chip, two state reaction model
T4 construct: non-covalent complex formed on the chip or plate; also called PAI-1/Vn complex; Vn captured hPAI-1
T4 sequence (chain, as listed by the source limits assumed, chain 1 of 2): as the sequence (P05121 24-402 limits assumed) above
T4 sequence (P04004 20-478 limits assumed, chain 2 of 2): as the sequence (P04004 20-478 limits assumed, chain 2 of 2) above

[10] = target: T4, human PAI-1 captured on immobilized …; test: Biacore, hPAI-1 on vitronectin chip, two state reaction model (ka1)
[11] = target: T4, human PAI-1 captured on immobilized …; test: Biacore, hPAI-1 on vitronectin chip, two state reaction model (kd1)
[12] = target: T3, cyno PAI-1 captured on immobilized …; test: Biacore, cPAI-1 on vitronectin chip, two state reaction model (ka1)
human PAI-1 [13] = target: T1, human PAI-1; test: cell-based or functional assay; remark: listed apart in the source
[14] = target: T3, cyno PAI-1 captured on immobilized …; test: Biacore, cPAI-1 on vitronectin chip, two state reaction model (kd1)
human PAI-1 [15] = target: T1, human PAI-1; test: Biacore, mAb on anti-human IgG Fc chip, 1:1 model
[16] = target: T2, glycosylated human PAI-1 (active form); test: cell-based or functional assay; remark: listed apart in the source
human PAI-1 [17] = target: T1, human PAI-1; test: cell-based or functional assay; remark: listed apart in the source
cynomolgus PAI-1 [18] = target: T5, cynomolgus PAI-1 (cynomolgus monkey (Macaca fascicularis), UniProt P05121 24-402 (human entry)); test: cell-based or functional assay
cynomolgus PAI-1 [19] = target: T5, cynomolgus PAI-1; test: Biacore, mAb on anti-human IgG Fc chip / cyno PAI-1, 1:1 model
cynomolgus PAI-1 [20] = target: T5, cynomolgus PAI-1; test: Biacore, hybridoma supernatant
human PAI-1 [21] = target: T1, human PAI-1; test: Biacore reverse assay, mAb captured by anti-mouse IgG Fc, 25 C
Description: (§1) In kinetics measurement, the antibodies were evaluated in reverse at 25° C. In the reverse assay, PAI-1 antibodies were captured to the anti-mouse IgG Fc antibody surface prepared on CM5 chip followed by injecting the serial 2× dilutions of PAI-1 proteins (human or cyno) starting at 40 nM. A high flow rate was chosen at 50 ul/min to avoid mass transportation limitation. Two thousand seconds was allowed for dissociation time to accommodate for the slow off rate of the selected antibodies. The chip was regenerated by glycine-HCl, pH 1.7 buffer after each round of antibody-PAI-1 binding. Kinetics data analysis was performed using Biacore BIAevaluation software. The sensorgrams were double-referenced by subtracting the reference flow cell values and the blank buffer values. The sensorgrams were fitted by using the simulated kinetics 1:1 (Langmuir) model with local Rmax.

[22] = target: T2, glycosylated human PAI-1 (active form); test: Biacore (summary table)
Description: as §1

T1 sequence (P05121 24-402 limits assumed): as the sequence (P05121 24-402 limits assumed) above

Row | Binder | koff (human PAI-1 [1]) [s⁻¹] | Chromogenic Assays [3] [nM] | Plasmin Generation [3] [nM] | plasmin generation, hepatic stellate cells, IC50abs [4] [pM] | plasmin generation, hepatic stellate cells, Imax [4] [%] | PAI-1 activity in human plasma (uPA-PAI-1 complex ELISA), IC50abs (human PAI-1 [5]) [pM] | PAI-1 activity in human plasma (uPA-PAI-1 complex ELISA), Imax (human PAI-1 [5]) [%] | human plasma clot lysis, IC50 [6] [pM] | human plasma clot lysis, Imax @ 100 nM [6] [%] | Kd [7] [pM] | koff [7] [s⁻¹] | other results
1 | E21 (antibody, mouse IgG2b, V domains shown, mouse IgG2b; also called mE21; E21 (IgG2b)) VH: EVQLQQSGAELVRSGASVKLSCTASGFNIKDYYMHWVKQRPEQGLEWIGWIDPENGDTEYDPKFQAKATMTADTSSNTAYLQLSSLTSEDTAVYYCMYGNYPYYFDYWGQGTTLTVSS VL: DIQMTQTTSSLSASLGDRVTISCRASQDISNYLNWYQQKPDGTVKLLIYYTSRLHSGVPSRFSGSGSGTDYSLTISNLEQEDIATYFCQQGNTLPWTFGGGTKLEIK | ≤ 0.0001 | 1.3 | 216 |  |  |  |  |  |  |  |  | EC50, % neutralization of hPAI-1 (chromogenic assay) (human PAI-1 [2]): 1080 pM
2 | E16 (antibody, mouse IgG1, V domains shown, mouse IgG1; also called mE16; E16 (IgG1)) VH: EVKLVESGGGLVKPGGSLKLSCAASGFTFSNYGMSWVRQTPEKGLGWVASLRTGGNTYYSDSVKGRFTISRDNDRNILYLQMSSLTSEDTAVYYCARGLRHWGYFDVWGAGTTVTVSS VL: DIVMTQSHKFMSTSVGDRVNITCKASQDVSTAVGWYQQEPGQSPKLLIYSASNRHTGVPDRFTGSGSGTDFTFTISSVQAEDLAVYYCQQHYSSPWTFGGGTKLEIK | ≤ 0.0001 | 1.1 | 4.74 | 4740 | 95 |  |  |  |  |  |  | EC50, % neutralization of hPAI-1 (chromogenic assay) (human PAI-1 [2]): 1240 pM
3 | APG (antibody, V domains shown, murine anti-PAI-1 antibody of DE2000153251; also called mAPG; mouse APG) VH: QVKLQESGPELVKPGASVKISCKASGYSFTDYNMNWVKQSKGKSLEWIGIIHPNSGTTTYNQKFKGKATLTVDQSSSTAYLQLNSLTSEDSAVYYCARSKLRFFDYWGQGTTVTVSS VL: DIKLTQSPSSMYASLGERVTITCKASQDIYSYLSWFQQKPGKSPKTLIYRANRLIDGVPSRFSGSGSGQDYSLTISSLEYEHMGIYYCLQYDEFPFTFGSGTKLEIK |  |  |  |  |  | 1810 | 89.7 | 2340 | 123 | 113 | 0.000432 | 
4 | A44-hv7 (antibody, V domains shown, humanized A44, HEK293; constant regions as for A44-hv1; also called LC4 x HC4; variant 7) VH: QMTLKESGPTLVKPTQTLSLTCSVSGESMTQGYWNWIRQFPGKALEYMGYITYSGSTYYNPSLKGRITITRQTSKNQYYLTLSSVTTVETATYYCARWHYGSPYYFDYWGQGTTLTVSS VL: DIKMTQSPSSLSASVGDRVTITCKASQDINSYLSWLQQKPGKSPKTLIYRAQRSVEGVPSRFSGSGSGQDYSLTISSLQPEDLATYYCLQYDEFPPTFGGGTKLEIK |  |  |  |  |  |  |  |  |  |  |  | Kd [8]: 95.6 pM; Kd [9]: 96.4 pM; kon [10]: 4.14e+06 M⁻¹ s⁻¹; koff [11]: 0.000394 s⁻¹; kon [12]: 2.5e+06 M⁻¹ s⁻¹; Chromogenic Assay IC50 (human PAI-1 [13]): 590 pM; koff [14]: 0.000239 s⁻¹
5 | A44-hv13 (antibody, V domains shown, humanized A44, HEK293; constant regions as for A44-hv1; also called LC2 x HC5b; variant 13) VH: QMQLQESGPGLVKPSETLSLTCTVSGDSMTNGYWNWIRQPPGKGLEYMGYITYSGSTYYNPSLKSRITISRDTSKNQYSLKLSSVTAADTAVYYCARWHYGSPYYFDYWGQGTLVTVSS VL: DIKMTQSPSSLSASVGDRVTITCKASQDINSYLSWLQQKPGKSPKTLIYRAQRSVEGVPSRFSGSGSGQDYSLTISSLQPEDLGIYYCLQYDEFPPTFGGGTKLEIK |  |  |  |  |  |  |  |  |  |  |  | Kd (human PAI-1 [15]): 16.4 pM; koff (human PAI-1 [15]): 2.52e-05 s⁻¹; kon (human PAI-1 [15]): 1.54e+06 M⁻¹ s⁻¹; Kd [8]: 115 pM; Kd [9]: 179 pM; kon [10]: 2.4e+06 M⁻¹ s⁻¹; koff [11]: 0.000436 s⁻¹; Plasminogen Activation IC50 [16]: 1820 pM; Plasminogen Activation Y50% [16]: 71.1%; kon [12]: 2.12e+06 M⁻¹ s⁻¹; active PAI-1 by uPA-PAI-1 complex ELISA, hPAI-1 Standard, IC50 (human PAI-1 [17]): 166 pM; active PAI-1 by uPA-PAI-1 complex ELISA, hPAI-1 Standard, Y50% (human PAI-1 [17]): 52.8%; active PAI-1 by uPA-PAI-1 complex ELISA, hPlasma TH1782, IC50 (human PAI-1 [17]): 31.1 pM; active PAI-1 by uPA-PAI-1 complex ELISA, hPlasma TH1782, Y50% (human PAI-1 [17]): 61.4%; active PAI-1 by uPA-PAI-1 complex ELISA, Cyno PAI-1, IC50 (cynomolgus PAI-1 [18]): 28.1 pM; active PAI-1 by uPA-PAI-1 complex ELISA, Cyno PAI-1, Y50% (cynomolgus PAI-1 [18]): 52.8%; Kd (cynomolgus PAI-1 [19]): 27 pM; koff (cynomolgus PAI-1 [19]): 5.08e-05 s⁻¹; kon (cynomolgus PAI-1 [19]): 1.89e+06 M⁻¹ s⁻¹; koff [14]: 0.000243 s⁻¹
6 | APGv2 (antibody, V domains shown, humanized APG; captured by anti-human IgG (Fc); also called APG variant 2) VH: QVQLVQSGSELKKPGASVKVSCKASGYSFTDYNMNWVRQAPGQGLEWIGIIHPNSGTTTYNQKFKGRAVLSVDQSVSTAYLQISSLKAEDTAVYYCARSKLRFFDYWGQGTLVTVSS VL: DIQLTQSPSSLSASVGDRVTITCKASQDIYSYLSWFQQKPGKAPKTLIYRANRLIDGVPSRFSGSGSGQDYTFTISSLQPEDIATYYCLQYDEFPFTFGQGTKLEIK |  |  |  |  |  | 962 | 94.5 | 2080 | 114 | 40.8 | 0.000269 | 
7 | APGv4 (antibody, V domains shown, humanized APG; captured by anti-human IgG (Fc); also called APG variant 4) VH: QVQLVQSGAEVKKPGASVKVSCKASGYSFTDYNMNWVRQAPGQGLEWIGIIHPNSGTTTYNQKFKGRATLTVDQSTSTAYMELSSLRSEDTAVYYCARSKLRFFDYWGQGTLVTVSS VL: DIQLTQSPSSLSASVGDRVTITCKASQDIYSYLSWFQQKPGKAPKTLIYRANRLIDGVPSRFSGSGSGQDYTFTISSLQPEDIATYYCLQYDEFPFTFGQGTKLEIK |  |  |  |  |  | 1280 | 94.4 | 2820 | 116 | 38 | 0.000359 | 
8 | A71 (antibody, mouse IgG1, V domains shown, mouse IgG1/kappa; also called mA71; A71 (IgG1/k)) VH: QVQLQQSGAELMKPGASVKISCKATGFTFSTYWIEWIKQRPGHGLDWIGEILPGSGNTNYNEKFKGKATFTADTSSNTVYMQLSSLTSEDSAVYYCARGGLYYNLDSWGQGTTLTVSS VL: not shown | ≤ 0.0001 | ~4 | 8.61 | 8610 | 90 |  |  |  |  |  |  | binding result (cynomolgus PAI-1 [20]): binds
9 | A105 (antibody, mouse IgG1, V domains shown, mouse IgG1/kappa; also called mA105; A105 (IgG1/k)) VH: QVQLQQSGAELMKPGASVKISCKATGFTFSIYWIEWVKQRPGLGLEWIGEILPGSGSTNYNEKFKGKATFTADTSSNTAFMQLSSLTSEDSAVYYCARGGLYYDLDYWGQGTILTVSS VL: not shown | ≤ 0.0001 | 7 | 27 | 27000 | 88 |  |  |  |  |  |  | Kd (human PAI-1 [21]): 42.3 pM; koff (human PAI-1 [21]): 0.000164 s⁻¹; binding result (cynomolgus PAI-1 [20]): binds; Kd [22]: 42 pM
